According to IntAct's records for PubMed 19853560:

B1: Phosphatidylinositol 3,4,5-trisphosphate 3-phosphatase and dual-specificity protein phosphatase daf-18 (Caenorhabditis elegans), G5EE01 (parent)
chain: MVTPPPDVPSTSTRSMARDLQENPNRQPGEPRVSEPYHNSIVERIRHIFRTAVSSNRCRTEYQNIDLDCAYITDRIIAIGYPATGIEANFRNSKVQTQQFLTRRHGKGNVKVFNLRGGYYYDADNFDGNVICFDMTDHHPPSLELMAPFCREAKEWLEADDKHVIAVHCKAGKGRTGVMICALLIYINFYPSPRQILDYYSIIRTKNNKGVTIPSQRRYIYYYHKLRERELNYLPLRMQLIGVYVERPPKTWGGGSKIKVEVGNGSTILFKPDPLIISKSNHQRERATWLNNCDTPNEFDTGEQKYHGFVSKRAYCFMVPEDAPVFVEGDVRIDIREIGFLKKFSDGKIGHVWFNTMFACDGGLNGGHFEYVDKTQPYIGDDTSIGRKNGMRRNETPMRKIDPETGNEFESPWQIVNPPGLEKHITEEQAMENYTNYGMIPPRYTISKILHEKHEKGIVKDDYNDRKLPMGDKSYTESGKSGDIRGVGGPFEIPYKAEEHVLTFPVYEMDRALKSKDLNNGMKLHVVLRCVDTRDSKMMEKSEVFGNLAFHNESTRRLQALTQMNPKWRPEPCAFGSKGAEMHYPPSVRYSSNDGKYNGACSENLVSDFFEHRNIAVLNRYCRYFYKQRSTSRSRYPRKFRYCPLIKKHFYIPADTDDVDENGQPFFHSPEHYIKEQEKIDAEKAAKGIENTGPSTSGSSAPGTIKKTEASQSDKVKPATEDELPPARLPDNVRRFPVVGVDFENPEEESCEHKTVESIAGFEPLEHLFHESYHPNTAGNMLRQDYHTDSEVKIAEQEAKAFVDQLLNGQGVLQEFMKQFKVPSDNSFADYVTGQAEVFKAQIALLEQSEDFQRVQANAEEVDLEHTLGEAFERFGHVVEESNGSSKNPKALKTREQMVKETGKDTQKTRNHVLLHLEANHRVQIERRETCPELHPEDKIPRIAHFSENSFSDSNFDQAIYL
partner: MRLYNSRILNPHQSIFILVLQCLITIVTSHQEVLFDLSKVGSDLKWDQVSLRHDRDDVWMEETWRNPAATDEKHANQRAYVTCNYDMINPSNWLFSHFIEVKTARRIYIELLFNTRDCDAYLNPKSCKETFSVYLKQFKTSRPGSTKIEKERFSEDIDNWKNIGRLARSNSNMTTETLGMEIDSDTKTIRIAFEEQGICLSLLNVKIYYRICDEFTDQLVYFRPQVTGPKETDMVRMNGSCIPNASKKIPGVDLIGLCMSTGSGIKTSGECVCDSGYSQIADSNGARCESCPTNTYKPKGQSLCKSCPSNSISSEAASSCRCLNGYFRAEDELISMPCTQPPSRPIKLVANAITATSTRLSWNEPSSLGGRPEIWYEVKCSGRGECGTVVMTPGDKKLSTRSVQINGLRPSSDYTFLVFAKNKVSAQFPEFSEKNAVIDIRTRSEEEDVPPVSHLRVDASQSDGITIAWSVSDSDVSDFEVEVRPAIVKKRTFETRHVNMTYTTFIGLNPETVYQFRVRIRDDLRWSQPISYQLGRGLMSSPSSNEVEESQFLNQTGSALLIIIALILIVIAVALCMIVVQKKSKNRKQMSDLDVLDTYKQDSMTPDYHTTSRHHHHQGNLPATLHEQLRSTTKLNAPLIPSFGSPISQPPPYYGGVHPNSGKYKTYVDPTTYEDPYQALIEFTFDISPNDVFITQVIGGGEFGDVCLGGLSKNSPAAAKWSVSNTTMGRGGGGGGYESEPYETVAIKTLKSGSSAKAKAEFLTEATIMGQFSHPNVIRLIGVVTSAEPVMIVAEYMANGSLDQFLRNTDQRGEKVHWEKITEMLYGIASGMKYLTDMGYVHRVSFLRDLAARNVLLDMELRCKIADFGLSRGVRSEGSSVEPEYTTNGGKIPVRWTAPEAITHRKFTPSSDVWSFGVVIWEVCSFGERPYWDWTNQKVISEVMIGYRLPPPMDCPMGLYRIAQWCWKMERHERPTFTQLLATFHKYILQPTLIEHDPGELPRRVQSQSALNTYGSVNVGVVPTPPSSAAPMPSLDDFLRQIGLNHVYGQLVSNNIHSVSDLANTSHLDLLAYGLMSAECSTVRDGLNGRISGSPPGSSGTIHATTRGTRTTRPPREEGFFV

Variants of: B1
Conditions: with vab1_caeel vab-1, O61460
In the case of D137A, the “effect of a mutation on the interaction” value is reported as “increasing interaction”.
